For 1 substance, stoichiometry N results are on record in paper doi:10.1101/2020.03.13.990150.

The term stoichiometry N denotes the number of molecules, sites or subunits per partner or assembly.

For this assay, the target named is Saccharomyces cerevisiae (Sc) Tim9 (Saccharomyces cerevisiae). The assay is described as follows: SEC. In general terms: In gel filtration, larger molecules generally elute earlier.

In turn, “Saccharomyces cerevisiae (Sc) Tim9 (natural protein)” registered a stoichiometry N of 2.
